Experimental findings from the supplement of paper PMC10126150 are described below.

This data set has as its system ATP. The data set is described as follows: switch fluorescence ratio, 500 uM ATP over buffer (Cy3 cluster intensity, sum of 5 cycles each) (fold (ratio)); higher = stronger signal-on switching upon ATP binding; sequences stand for … in TCGTCGGCAGCGTCAGATGTGTATAAGAGACAGTTTTTTTTTTTTTTTTTTTTTTTTT…TC. The conditions noted are these: aptamer strand: ATP DNA aptamer (quencher-CACCTGGGGGAGTATTGCGGAGGAAGG + anchor), 100 nM annealed; ATP concentration: 500 uM. The method, boiled down: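 Exposure to 500 uM ATP lasted 15 min at 22 °C before imaging, and a selection-buffer image was taken beforehand, for Cy3-labelled switching-strand clusters on a modified Illumina MiSeq flow-cell annealed to 100 nM quencher-labelled ATP aptamer. Five buffer/ATP cycles were run with NaOH stripping and re-annealing between them. The fluorescence ratio per cluster is summed target-cycle over summed buffer-cycle Cy3 intensity, averaged per switch-domain sequence. Clusters outside 100-1000 RFU were excluded.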

± gives the standard deviation of the averaged measurements.

As for TTGTGGTCTT, the switch fluorescence ratio came out at 0.9762 ± 0.0075.

Regarding TTGTGGTGGG, the switch fluorescence ratio turned out to be 1.03 ± 0.069.

With TTGTGGTTTG, the switch fluorescence ratio turned out to be 0.992 ± 0.034.

Regarding TTGTGTATGG, the switch fluorescence ratio turned out to be 1.02 ± 0.052.

Turning to TTGTGTCGGG, the switch fluorescence ratio is 0.998 ± 0.02.

With TTGTGTGATT, the switch fluorescence ratio was 1.02 ± 0.038.

Regarding TTGTGTGGGC, the switch fluorescence ratio is 1.04 ± 0.047.

Regarding TTGTGTGTAA, the switch fluorescence ratio was determined as 0.995 ± 0.014.

As for TTGTGTTAGT, the switch fluorescence ratio was 0.958 ± 0.01.

Take TTGTGTTTAT: the switch fluorescence ratio was determined as 0.965 ± 0.015.

As for TTGTGTTTTT, the switch fluorescence ratio worked out at 0.995 ± 0.023.

For the sequence TTGTTAACAG, the switch fluorescence ratio is 0.997 ± 0.018.

Take TTGTTAATAT: the switch fluorescence ratio came to 1 ± 0.035.

TTGTTAATGT: the switch fluorescence ratio was 1.06 ± 0.17.

For TTGTTAGAA, the switch fluorescence ratio came out at 1.0004 ± 0.001.

In the case of TTGTTAGAAA, the switch fluorescence ratio was 1.002 ± 0.0058.

TTGTTAGATC: the switch fluorescence ratio was found to be 0.984 ± 0.036.

Turning to TTGTTAGGCC, the switch fluorescence ratio turned out to be 0.995 ± 0.021.

TTGTTAGTTT: the switch fluorescence ratio is 0.983 ± 0.032.

Consider TTGTTATACG, for which the switch fluorescence ratio was found to be 1.09 ± 0.079.

For TTGTTATGTA, the switch fluorescence ratio worked out at 0.982 ± 0.026.

For the sequence TTGTTATGTT, the switch fluorescence ratio is 0.971 ± 0.03.

As to TTGTTATTGG, the switch fluorescence ratio came out at 0.978 ± 0.038.

With TTGTTCAAAA, the switch fluorescence ratio stood at 1.03 ± 0.025.

Take TTGTTCCATA: the switch fluorescence ratio was determined as 1 ± 0.033.

Take TTGTTGAAGG: the switch fluorescence ratio was determined as 0.998 ± 0.038.

Regarding TTGTTGAAGT, the switch fluorescence ratio stood at 0.9966 ± 0.0072.

For the sequence TTGTTGATTT, the switch fluorescence ratio worked out at 1.02 ± 0.034.

Turning to TTGTTGGGAA, the switch fluorescence ratio came to 0.998 ± 0.032.

In the case of TTGTTGGGGG, the switch fluorescence ratio stood at 0.994 ± 0.027.

On to TTGTTGGTAC, for which the switch fluorescence ratio stood at 1.15 ± 0.23.

As for TTGTTGGTCC, the switch fluorescence ratio worked out at 1.16 ± 0.25.

In the case of TTGTTGGTGA, the switch fluorescence ratio was found to be 0.971 ± 0.033.

As to TTGTTGGTGC, the switch fluorescence ratio turned out to be 1.09 ± 0.014.

Regarding TTGTTGGTTA, the switch fluorescence ratio is 0.9925 ± 0.0028.

With TTGTTGGTTT, the switch fluorescence ratio turned out to be 1.02 ± 0.05.

As for TTGTTGTAGC, the switch fluorescence ratio was found to be 1.02 ± 0.015.

For the sequence TTGTTGTATG, the switch fluorescence ratio was 1.02 ± 0.014.

For the sequence TTGTTGTCGG, the switch fluorescence ratio is 0.956 ± 0.013.

For the sequence TTGTTGTTAC, the switch fluorescence ratio is 0.9998 ± 0.0074.

In the case of TTGTTTAACT, the switch fluorescence ratio is 1.02 ± 0.026.

For TTGTTTAGGG, the switch fluorescence ratio came out at 0.999 ± 0.049.

For the sequence TTGTTTCCCG, the switch fluorescence ratio worked out at 1.013 ± 0.0086.

In the case of TTGTTTGGCC, the switch fluorescence ratio was 1.05 ± 0.079.

In the case of TTGTTTGGCT, the switch fluorescence ratio was 1.01 ± 0.015.

With TTGTTTGGTG, the switch fluorescence ratio was determined as 0.932 ± 0.014.

Regarding TTGTTTTAAT, the switch fluorescence ratio turned out to be 0.999 ± 0.02.

As to TTGTTTTACA, the switch fluorescence ratio worked out at 0.9843 ± 0.0096.

For the sequence TTGTTTTGAT, the switch fluorescence ratio was determined as 0.984 ± 0.035.

On to TTGTTTTGCA, for which the switch fluorescence ratio worked out at 0.971 ± 0.018.

For TTGTTTTTTC, the switch fluorescence ratio was 0.986 ± 0.026.

On to TTTAAAAAGC, for which the switch fluorescence ratio amounted to 0.996 ± 0.032.

With TTTAAAAAGT, the switch fluorescence ratio was 1 ± 0.023.

As to TTTAAAAATA, the switch fluorescence ratio is 0.9966 ± 0.0049.

For TTTAAAACGC, the switch fluorescence ratio came out at 1.01 ± 0.099.

As for TTTAAAATTC, the switch fluorescence ratio amounted to 1.28 ± 0.49.

With TTTAAACGTA, the switch fluorescence ratio amounted to 0.983 ± 0.033.

As to TTTAAAGTGT, the switch fluorescence ratio amounted to 0.997 ± 0.029.

Take TTTAAATCTT: the switch fluorescence ratio is 1.06 ± 0.022.

Consider TTTAAATGCG, for which the switch fluorescence ratio came out at 0.985 ± 0.041.

Turning to TTTAAATGGT, the switch fluorescence ratio worked out at 1 ± 0.027.

TTTAACCGTC: the switch fluorescence ratio was 1.06 ± 0.052.

Consider TTTAACGAAT, for which the switch fluorescence ratio was determined as 1.09 ± 0.099.

In the case of TTTAACGTTT, the switch fluorescence ratio turned out to be 0.979 ± 0.0061.

Regarding TTTAACTCTG, the switch fluorescence ratio turned out to be 1 ± 0.011.

For TTTAAGACAA, the switch fluorescence ratio worked out at 0.9892 ± 0.0025.

As to TTTAAGCCGG, the switch fluorescence ratio was determined as 1.01 ± 0.032.

As to TTTAAGGGA, the switch fluorescence ratio turned out to be 0.9897 ± 0.0045.

For the sequence TTTAAGGGCC, the switch fluorescence ratio came out at 0.978 ± 0.036.

Consider TTTAAGGTGA, for which the switch fluorescence ratio turned out to be 1.04 ± 0.053.

Take TTTAAGGTTA: the switch fluorescence ratio is 0.999 ± 0.025.

Consider TTTAAGTCAG, for which the switch fluorescence ratio amounted to 1.018 ± 0.0088.

Regarding TTTAAGTTTG, the switch fluorescence ratio was determined as 0.989 ± 0.029.

Regarding TTTAATAAAA, the switch fluorescence ratio was found to be 0.988 ± 0.013.

As for TTTAATAAGT, the switch fluorescence ratio worked out at 0.9981 ± 0.0036.

In the case of TTTAATACGA, the switch fluorescence ratio worked out at 1.04 ± 0.042.

TTTAATACGG: the switch fluorescence ratio came to 1.04 ± 0.011.

Take TTTAATAGTT: the switch fluorescence ratio amounted to 1.03 ± 0.022.

Consider TTTAATATCT, for which the switch fluorescence ratio is 0.998 ± 0.015.

Consider TTTAATATGC, for which the switch fluorescence ratio came to 1.14 ± 0.23.

For the sequence TTTAATATGT, the switch fluorescence ratio came out at 0.968 ± 0.024.

With TTTAATCAAG, the switch fluorescence ratio worked out at 0.951 ± 0.021.

For TTTAATCACC, the switch fluorescence ratio stood at 1.02 ± 0.02.

For the sequence TTTAATCTG, the switch fluorescence ratio turned out to be 0.962 ± 0.021.

Turning to TTTAATGCCG, the switch fluorescence ratio turned out to be 0.954 ± 0.027.

Turning to TTTAATGTAC, the switch fluorescence ratio came out at 1.36 ± 0.32.

With TTTAATTATG, the switch fluorescence ratio was 1.02 ± 0.034.

Take TTTAATTGG: the switch fluorescence ratio is 1 ± 0.048.

For TTTACAAGTA, the switch fluorescence ratio came out at 1.031 ± 0.0049.

Regarding TTTACACAGG, the switch fluorescence ratio came to 1.17 ± 0.035.

As to TTTACAGGGT, the switch fluorescence ratio is 1.03 ± 0.036.

Take TTTACAGGTT: the switch fluorescence ratio is 1.11 ± 0.1.

For the sequence TTTACATGCG, the switch fluorescence ratio was 0.935 ± 0.031.

As to TTTACATTGT, the switch fluorescence ratio turned out to be 1.01 ± 0.03.

As to TTTACCCCAA, the switch fluorescence ratio was determined as 1.15 ± 0.095.

With TTTACCGAAT, the switch fluorescence ratio was 1.05 ± 0.017.

With TTTACCGGCG, the switch fluorescence ratio was found to be 1.02 ± 0.051.

As to TTTACCTGGG, the switch fluorescence ratio was 1.01 ± 0.032.

Regarding TTTACGCGGG, the switch fluorescence ratio came to 1.04 ± 0.075.

Turning to TTTACGGCCC, the switch fluorescence ratio turned out to be 1.07 ± 0.12.

Consider TTTACGGGAA, for which the switch fluorescence ratio was 1.05 ± 0.007.

Regarding TTTACGGGTC, the switch fluorescence ratio is 0.981 ± 0.026.

TTTACGGGTT: the switch fluorescence ratio worked out at 0.988 ± 0.021.

On to TTTACGTGAC, for which the switch fluorescence ratio stood at 1.22 ± 0.16.

TTTACGTTGC: the switch fluorescence ratio is 1.34 ± 0.47.

Turning to TTTACGTTTG, the switch fluorescence ratio stood at 0.9919 ± 0.0017.

Turning to TTTACTGGCA, the switch fluorescence ratio came out at 1.05 ± 0.076.

On to TTTACTTGTA, for which the switch fluorescence ratio came out at 1.01 ± 0.023.

With TTTACTTTAT, the switch fluorescence ratio stood at 1.06 ± 0.044.

Regarding TTTAGAAACT, the switch fluorescence ratio amounted to 1.027 ± 0.0067.

As to TTTAGAATAC, the switch fluorescence ratio is 1.51 ± 0.42.

For TTTAGAGCGT, the switch fluorescence ratio stood at 0.9933 ± 0.0013.

As for TTTAGAGGCT, the switch fluorescence ratio stood at 1 ± 0.012.

Consider TTTAGAGTGT, for which the switch fluorescence ratio came out at 1.044 ± 0.0087.

On to TTTAGATACG, for which the switch fluorescence ratio was 1.05 ± 0.014.

On to TTTAGATGGG, for which the switch fluorescence ratio worked out at 0.989 ± 0.029.

Turning to TTTAGATTCT, the switch fluorescence ratio was found to be 0.992 ± 0.032.

Take TTTAGCAACA: the switch fluorescence ratio came out at 1.04 ± 0.047.

On to TTTAGCGTGG, for which the switch fluorescence ratio turned out to be 1.05 ± 0.05.

With TTTAGCT, the switch fluorescence ratio is 1.08 ± 0.097.
